Reference: article doi:10.1101/2024.06.17.599268 (bioRxiv, 2024)

T1: Rab10_(1-175) (human, UniProt P61026 1-175)
T1 sequence: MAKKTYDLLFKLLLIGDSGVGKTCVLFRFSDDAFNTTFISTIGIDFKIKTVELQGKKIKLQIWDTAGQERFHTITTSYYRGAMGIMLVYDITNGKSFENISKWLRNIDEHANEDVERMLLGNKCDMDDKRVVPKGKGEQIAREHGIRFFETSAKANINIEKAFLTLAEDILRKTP

T2: Rab8a_(1-176) (human, UniProt P61006 1-176)
T2 sequence: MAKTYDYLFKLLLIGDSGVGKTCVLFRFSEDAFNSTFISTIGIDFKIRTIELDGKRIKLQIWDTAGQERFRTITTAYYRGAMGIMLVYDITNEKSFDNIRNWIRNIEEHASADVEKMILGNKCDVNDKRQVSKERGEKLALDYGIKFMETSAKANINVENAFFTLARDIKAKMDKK

T3: Mical1 MO-CH-LIM (residues 1-781) (human, UniProt Q8TDZ2 1-781)
T3 sequence: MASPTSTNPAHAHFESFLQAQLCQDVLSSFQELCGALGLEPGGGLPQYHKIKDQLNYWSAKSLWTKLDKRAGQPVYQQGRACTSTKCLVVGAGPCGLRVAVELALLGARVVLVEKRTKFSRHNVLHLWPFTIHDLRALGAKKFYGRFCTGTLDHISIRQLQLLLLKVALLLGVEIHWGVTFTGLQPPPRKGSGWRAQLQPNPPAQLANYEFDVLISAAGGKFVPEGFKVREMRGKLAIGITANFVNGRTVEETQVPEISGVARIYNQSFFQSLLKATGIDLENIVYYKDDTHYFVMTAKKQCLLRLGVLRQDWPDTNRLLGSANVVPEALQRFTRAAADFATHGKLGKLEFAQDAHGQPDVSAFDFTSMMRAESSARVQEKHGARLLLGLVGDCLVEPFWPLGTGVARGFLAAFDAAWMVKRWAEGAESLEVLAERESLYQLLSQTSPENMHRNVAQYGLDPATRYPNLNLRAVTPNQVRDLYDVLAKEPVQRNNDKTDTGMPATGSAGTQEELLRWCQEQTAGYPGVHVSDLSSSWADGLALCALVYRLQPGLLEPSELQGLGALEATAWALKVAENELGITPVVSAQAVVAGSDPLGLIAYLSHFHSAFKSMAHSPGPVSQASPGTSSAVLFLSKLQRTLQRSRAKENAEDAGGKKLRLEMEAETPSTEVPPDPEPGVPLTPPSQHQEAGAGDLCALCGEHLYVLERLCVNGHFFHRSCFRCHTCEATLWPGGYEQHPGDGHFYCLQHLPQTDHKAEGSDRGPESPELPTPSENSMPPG

T4: Rab13_(1-176) (human, UniProt P51153 1-176)
T4 sequence: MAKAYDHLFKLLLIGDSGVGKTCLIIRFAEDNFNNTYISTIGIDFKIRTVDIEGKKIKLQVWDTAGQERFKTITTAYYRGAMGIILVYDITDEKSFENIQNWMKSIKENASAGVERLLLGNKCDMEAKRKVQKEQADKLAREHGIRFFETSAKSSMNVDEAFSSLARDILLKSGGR

T5: Rab15_(1-176) (human, UniProt P59190 1-176)
T5 sequence: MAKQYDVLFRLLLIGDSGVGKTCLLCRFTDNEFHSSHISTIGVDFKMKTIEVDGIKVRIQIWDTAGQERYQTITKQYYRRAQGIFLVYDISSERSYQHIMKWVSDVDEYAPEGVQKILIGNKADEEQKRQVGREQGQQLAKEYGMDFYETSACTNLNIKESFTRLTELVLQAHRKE


What was measured:
Rab10_(1-175) [1] = biological target: T1, Rab10_(1-175); experiment: crystal structure
Rab8a_(1-176) [2] = biological target: T2, Rab8a_(1-176); experiment: ITC
[3] = biological target: T3, Mical1 MO-CH-LIM (residues 1-781); experiment: ITC
Rab8a_(1-176) [4] = biological target: T2, Rab8a_(1-176); experiment: SEC
Rab10_(1-175) [5] = biological target: T1, Rab10_(1-175); experiment: SEC
Rab13_(1-176) = biological target: T4, Rab13_(1-176); experiment: SEC
Rab15_(1-176) = biological target: T5, Rab15_(1-176); experiment: SEC

Row | Binder | binding result (Rab10_(1-175) [1]) | binding result (Rab8a_(1-176) [2]) | fold reduction in affinity against wild-type bMERB [3] [fold] | binding result (Rab8a_(1-176) [4]) | binding result (Rab10_(1-175) [5]) | binding result (Rab13_(1-176)) | binding result (Rab15_(1-176))
1 | bMERB_(V978A) (domain or fragment) KEEEMKRFCKAQTIQRRLNEIEAALRELEAEGVKLELALRRQSSSPEQQKKLWVGQLLQLADKKNSLVAEEAELMITVQELNLEEKQWQLDQELRGYMNREENLKTAADRQAEDQVLRKLVDLVNQRDALIRFQEERRLSELALGTGAQG | binds | binds | 2 | – | – | – | –
2 | bMERB_(V978A_V985A) (domain or fragment) KEEEMKRFCKAQTIQRRLNEIEAALRELEAEGVKLELALRRQSSSPEQQKKLWVGQLLQLADKKNSLAAEEAELMITVQELNLEEKQWQLDQELRGYMNREENLKTAADRQAEDQVLRKLVDLVNQRDALIRFQEERRLSELALGTGAQG | – | – | – | binds | binds | binds | binds
